Measurements as given in EP2336190A2 (Genentech, Inc., dated 2011).

T1: VEGF121 (human, UniProt P15692 27-147)
T1 construct: mature; also called Purified VEGF121
T1 sequence (looked up): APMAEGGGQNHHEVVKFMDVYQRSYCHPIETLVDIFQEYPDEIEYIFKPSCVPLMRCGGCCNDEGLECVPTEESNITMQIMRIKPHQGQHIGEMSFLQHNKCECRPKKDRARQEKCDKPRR


How the values were obtained:
VEGF [1] = target: T2, VEGF (human, UniProt P15692-4 27-191, limits assumed); test: competitive phage-ELISA, wt = pY0192
T2 construct: also called human VEGF; vascular endothelial growth factor
Target sequence in this assay (P15692 other isoform, or with tags, fused parts or gaps limits assumed): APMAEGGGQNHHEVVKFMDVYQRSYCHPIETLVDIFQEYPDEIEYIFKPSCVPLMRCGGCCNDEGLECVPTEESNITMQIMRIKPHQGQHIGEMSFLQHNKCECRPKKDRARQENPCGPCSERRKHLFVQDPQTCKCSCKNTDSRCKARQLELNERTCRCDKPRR

VEGF [2] = target: T2, VEGF; test: KDR-IgG competition ELISA, biotinylated VEGF, 10% human serum
VEGF [3] = target: T2, VEGF; test: BIAcore-2000 SPR, wt = Y0192
Target sequence in this assay (P15692 other isoform, or with tags, fused parts or gaps limits assumed): as above

rhVEGF165 = rhVEGF165 (human, UniProt P15692 27-191); test: cell-based or functional assay
VEGF121 [4] = target: T1, VEGF121; test: BIAcore SPR, VEGF121 immobilised, Fab in solution
VEGF121 [5] = target: T1, VEGF121; test: BIAcore SPR, VEGF121 immobilised

| Binder | Kd (wt) / Kd (mut) (VEGF [3]) | other results |
| --- | --- | --- |
| pY0192 VH F110A (Fab, V domains shown) VH: EVQLVESGGGLVQPGGSLRLSCAASGYTFTNYGINWVRQAPGKGLEWVGWINTYTGEPTYAADFKRRFTFSLDTSKSTAYLQMNSLRAEDTAVYYCAKYPHYYGSSHWYADVWGQGTL VL: DIQLTQSPSSLSASVGDRVTITCRANEQLSNYLNWYQQKPGKAPKVLIYFTSSLHSGVPSRFSGSGSGTDFTLTISSLQPEDFATYYCQQYSTVPWTFGQGTKVEIKR | – | IC50 (mut) / IC50 (wt) (VEGF [1]): 25 |
| muMAb VEGF A.4.6.1 (antibody, V domains shown) VH: EIQLVQSGPELKQPGETVRISCKASGYTFTNYGMNWVKQAPGKGLKWMGWINTYTGEPTYAADFKRRFTFSLETSASTAYLQISNLKNDDTATYFCAKYPHYYGSSHWYFDVWGAGTTVTVSS VL: DIQMTQTTSSLSASLGDRVIISCSASQDISNYLNWYQQKPDGTVKVLIYFTSSLHSGVPSRFSGSGSGTDYSLTISNLEPEDIATYYCQQYSTVPWTFGGGTKLEIKR | – | IgG1/chIgG1 (EC50 ratio) (VEGF [2]): 0.759 |
| Y0238-1 (Fab, V domains shown, Library YC-81 (VH3) on the pY0192 template; substitutions deduced against Y0192; soluble Fab) VH: EVQLVESGGGLVQPGGSLRLSCAASGYTFTNYGINWVRQAPGKGLEWVGWINTYTGEPTYAADFKRRFTFSLDTSKSTAYLQMNSLRAEDTAVYYCAKYPYYRGTSHWYFDVWGQGTL VL: DIQLTQSPSSLSASVGDRVTITCRANEQLSNYLNWYQQKPGKAPKVLIYFTSSLHSGVPSRFSGSGSGTDFTLTISSLQPEDFATYYCQQYSTVPWTFGQGTKVEIKR | 7.3 ratio | – |
| Y0238-3 (Fab, V domains shown, CDRH3 variant (H101Y, S105T) from library YC-81; soluble Fab) VH: EVQLVESGGGLVQPGGSLRLSCAASGYTFTNYGINWVRQAPGKGLEWVGWINTYTGEPTYAADFKRRFTFSLDTSKSTAYLQMNSLRAEDTAVYYCAKYPYYYGTSHWYFDVWGQGTL VL: DIQLTQSPSSLSASVGDRVTITCRANEQLSNYLNWYQQKPGKAPKVLIYFTSSLHSGVPSRFSGSGSGTDFTLTISSLQPEDFATYYCQQYSTVPWTFGQGTKVEIKR | ≥ 14 ratio | – |
| Y0238-5 (Fab, V domains shown, Library YC-81 (VH3) on the pY0192 template; substitutions deduced against Y0192; soluble Fab) VH: EVQLVESGGGLVQPGGSLRLSCAASGYTFTNYGINWVRQAPGKGLEWVGWINTYTGEPTYAADFKRRFTFSLDTSKSTAYLQMNSLRAEDTAVYYCAKYPYYIAKSHWYFDVWGQGTL VL: DIQLTQSPSSLSASVGDRVTITCRANEQLSNYLNWYQQKPGKAPKVLIYFTSSLHSGVPSRFSGSGSGTDFTLTISSLQPEDFATYYCQQYSTVPWTFGQGTKVEIKR | 3.2 ratio | – |
| Y0238-7 (Fab, V domains shown, Library YC-81 (VH3) on the pY0192 template; substitutions deduced against Y0192; soluble Fab) VH: EVQLVESGGGLVQPGGSLRLSCAASGYTFTNYGINWVRQAPGKGLEWVGWINTYTGEPTYAADFKRRFTFSLDTSKSTAYLQMNSLRAEDTAVYYCAKYPYYWGTSHWYFDVWGQGTL VL: DIQLTQSPSSLSASVGDRVTITCRANEQLSNYLNWYQQKPGKAPKVLIYFTSSLHSGVPSRFSGSGSGTDFTLTISSLQPEDFATYYCQQYSTVPWTFGQGTKVEIKR | ≥ 7.3 ratio | – |
| Y0238-10 (Fab, V domains shown, Library YC-81 (VH3) on the pY0192 template; substitutions deduced against Y0192; soluble Fab) VH: EVQLVESGGGLVQPGGSLRLSCAASGYTFTNYGINWVRQAPGKGLEWVGWINTYTGEPTYAADFKRRFTFSLDTSKSTAYLQMNSLRAEDTAVYYCAKYPYYRNTSHWYFDVWGQGTL VL: DIQLTQSPSSLSASVGDRVTITCRANEQLSNYLNWYQQKPGKAPKVLIYFTSSLHSGVPSRFSGSGSGTDFTLTISSLQPEDFATYYCQQYSTVPWTFGQGTKVEIKR | 4.8 ratio | – |
| Y0243-1 (Fab, V domains shown, CDRH1 variant (T28D, N31H) from library HL-265; soluble Fab) VH: EVQLVESGGGLVQPGGSLRLSCAASGYDFTHYGMNWVRQAPGKGLEWVGWINTYTGEPTYAADFKRRFTFSLDTSKSTAYLQMNSLRAEDTAVYYCAKYPHYYGSSHWYFDVWGQGTL VL: DIQLTQSPSSLSASVGDRVTITCRANEQLSNYLNWYQQKPGKAPKVLIYFTSSLHSGVPSRFSGSGSGTDFTLTISSLQPEDFATYYCQQYSTVPWTFGQGTKVEIKR | 4.1 ratio | – |
| Y0244-1 (Fab, V domains shown, only the randomized region is printed, substitutions deduced against Y0192; soluble Fab from E. coli 34B8) VH: EVQLVESGGGLVQPGGSLRLSCAASGYTFTNYGINWVRQAPGKGLEWVGWINTYTGEPTYAADFKRRFTFSVDVSKSTAYLQMNSLRAEDTAVYYCAKYPHYYGSSHWYFDVWGQGTL VL: DIQLTQSPSSLSASVGDRVTITCRANEQLSNYLNWYQQKPGKAPKVLIYFTSSLHSGVPSRFSGSGSGTDFTLTISSLQPEDFATYYCQQYSTVPWTFGQGTKVEIKR | 3.6 ratio | – |
| Y0244-4 (Fab, V domains shown, substitutions deduced against Y0192; soluble Fab) VH: EVQLVESGGGLVQPGGSLRLSCAASGYTFTNYGINWVRQAPGKGLEWVGWINTYTGEPTYAADFKRRFTFSIDKSKSTAYLQMNSLRAEDTAVYYCAKYPHYYGSSHWYFDVWGQGTL VL: DIQLTQSPSSLSASVGDRVTITCRANEQLSNYLNWYQQKPGKAPKVLIYFTSSLHSGVPSRFSGSGSGTDFTLTISSLQPEDFATYYCQQYSTVPWTFGQGTKVEIKR | 0.9 ratio | – |
| Y0313-1 (Fab, V domains shown, Combination variant: Y0243-1 plus VH3 H101Y and S105T; soluble Fab) VH: EVQLVESGGGLVQPGGSLRLSCAASGYDFTHYGMNWVRQAPGKGLEWVGWINTYTGEPTYAADFKRRFTFSLDTSKSTAYLQMNSLRAEDTAVYYCAKYPYYYGTSHWYFDVWGQGTL VL: DIQLTQSPSSLSASVGDRVTITCRANEQLSNYLNWYQQKPGKAPKVLIYFTSSLHSGVPSRFSGSGSGTDFTLTISSLQPEDFATYYCQQYSTVPWTFGQGTKVEIKR | ≥ 20 ratio | potency in inhibiting VEGF-induced HuVEC DNA synthesis, against the wild-type Fab (Y0192) (rhVEGF165): 30 fold |
| Y0313-3 (Fab, V domains shown, Reversion mutant of Y0238-3; soluble Fab) VH: EVQLVESGGGLVQPGGSLRLSCAASGYTFTNYGINWVRQAPGKGLEWVGWINTYTGEPTYAADFKRRFTFSLDTSKSTAYLQMNSLRAEDTAVYYCAKYPYYYGSSHWYFDVWGQGTL VL: DIQLTQSPSSLSASVGDRVTITCRANEQLSNYLNWYQQKPGKAPKVLIYFTSSLHSGVPSRFSGSGSGTDFTLTISSLQPEDFATYYCQQYSTVPWTFGQGTKVEIKR | 4.5 ratio | – |
| hu2.10 (Fab, V domains shown, Phage-selected consensus clone, purified soluble Fab with human constant domains; also called consensus clone hu2.10) VH: EVQLVESGGGLVQPGGSLRLSCAASGYTFTNYGMNWIRQAPGKGLEWVGWINTYTGEPTYAADFKRRFTISLDTSASTVYLQMNSLRAEDTAVYYCAKYPHYYGSSHWYFDVWGQGTLVTVSS VL: DIQMTQSPSSLSASVGDRVTITCSASQDISNYLNWYQQKPGKAPKLLIYFTSSLHSGVPSRFSGSGSGTDYTLTISSLQPEDFATYYCQQYSTVPWTFGQGTKVEIK | – | KD(A4.6.1)/KD(mut) as headed (values are KD(mut) over KD of the chimera) (VEGF121 [4]): 35 ratio |
| hu2.10V (Fab, V domains shown, Soluble Fab with human constant domains; also called hu2.10 with mutation VL Leu->Val) VH: EVQLVESGGGLVQPGGSLRLSCAASGYTFTNYGMNWIRQAPGKGLEWVGWINTYTGEPTYAADFKRRFTISLDTSASTVYLQMNSLRAEDTAVYYCAKYPHYYGSSHWYFDVWGQGTLVTVSS VL: DIQMTQSPSSLSASVGDRVTITCSASQDISNYLNWYQQKPGKAPKVLIYFTSSLHSGVPSRFSGSGSGTDYTLTISSLQPEDFATYYCQQYSTVPWTFGQGTKVEIK | – | fold improvement in KD over hu2.10 (VEGF121 [5]): 6 fold; KD(A4.6.1)/KD(mut) as headed (values are KD(mut) over KD of the chimera) (VEGF121 [4]): 5.8 ratio |
